Measured values: patent US8124332B2, “Methods of using sIP-10, CD26 inhibitors and CXCR3 levels in a sample to assess clearance of infection, response to interferon therapy, and treating chronic infections” (Institut Pasteur, priority 2006, dated 2012)

How the values were obtained:
CXCR3 [1] = biological target: T1, CXCR3 (Homo sapiens, UniProt P49682); assay: Ca++ flux in CHO cells transfected with a CXCR3 expressing plasmid; assay type: cell-based; set-up: transfected with a plasmid encoding the full-length open reading frame of CXCR3; expressed in transfected cells; plasmid from Dr. C P Tensen, Leiden
T1 sequence (P49682 1-368): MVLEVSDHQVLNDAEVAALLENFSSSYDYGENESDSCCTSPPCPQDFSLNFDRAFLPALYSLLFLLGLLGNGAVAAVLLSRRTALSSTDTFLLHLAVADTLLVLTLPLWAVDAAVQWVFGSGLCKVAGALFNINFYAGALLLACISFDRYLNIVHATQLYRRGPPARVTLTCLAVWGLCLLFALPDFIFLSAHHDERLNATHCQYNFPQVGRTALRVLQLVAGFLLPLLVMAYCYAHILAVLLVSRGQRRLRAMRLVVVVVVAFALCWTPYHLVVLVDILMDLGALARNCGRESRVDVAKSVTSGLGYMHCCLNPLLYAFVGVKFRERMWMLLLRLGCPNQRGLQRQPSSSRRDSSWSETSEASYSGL
Source text: In order to test the hypothesis, it was necessary to generate novel reagents. First, recombinant full length CXCL10 (1-77) was exposed to recombinant DPP4 and cleavage was monitored by SELDI mass spectroscopy (FIG. 18A). […] Next, the inventors performed in vitro studies confirming that CXCL10 (1-77) but not CXCL10 (3-77) is capable of: (i) directing the migration of CXCR3^+ cells (FIG. 18B); (ii) mediating receptor internalization in primary PBMCs (not shown); and (iii) triggering a Ca^++ flux in CHO cells transfected with a CXCR3 expressing plasmid (FIGS. 18C, 18D). […] To date, however, there has been no in vivo evidence to support a role for CXCL10 antagonism in disease pathogenesis. […]
To generate CXCL10 (3-77), recombinant human CXCL10 (Peprotech, Rocky Hill, N.Y. USA) was incubated with recombinant DPP4 (Sigma) in a 100 mM Tris-HCL pH 8 solution, for 2 h at 37° C. […] Arrays were incubated and washed as per manufacturers instructions and analyzed using the ProteinChip System Series 4000 (Ciphergen). […] Data were analyzed using CiphergenExpress Software. […] Lymphocytes were allowed to migrate for 2 hours at 37° C. and cells in the bottom chamber were counted using a Guava cytometer (Guava Technologies, C A, USA). Calcium-flux assays: Increased intracellular [Ca^2+] in response to CXCR3 signaling were monitored by FACS. […] Ca^++ release was measured using a Canto II Cytometer. […]

CXCR3+ cells = assay: Lymphocyte chemotaxis assay; assay type: cell-based, human; conditions: PHA-T blasts, chemokine in bottom chamber, 2 hours at 37° C.
CXCR3 [2] = biological target: T1, CXCR3; assay: Receptor internalization in primary PBMCs; assay type: cell-based; set-up: endogenous in cells; host or cells: primary PBMCs
Source text: In order to test the hypothesis, it was necessary to generate novel reagents. First, recombinant full length CXCL10 (1-77) was exposed to recombinant DPP4 and cleavage was monitored by SELDI mass spectroscopy (FIG. 18A). […] Next, the inventors performed in vitro studies confirming that CXCL10 (1-77) but not CXCL10 (3-77) is capable of: (i) directing the migration of CXCR3^+ cells (FIG. 18B); (ii) mediating receptor internalization in primary PBMCs (not shown); and (iii) triggering a Ca^++ flux in CHO cells transfected with a CXCR3 expressing plasmid (FIGS. 18C, 18D). […] To date, however, there has been no in vivo evidence to support a role for CXCL10 antagonism in disease pathogenesis. In part, the challenge in establishing in vivo evidence of this mechanism of immune regulation is due to the inability to discriminate the two forms of the chemokine by a sensitive, immune-based assay.

[3] = test system: plasma DPP activity (X-prolyl DPP); conditions: plasma of patients with HCV infection

CXCL10 (3-77): NH2-terminal truncated CXCL10 generated by DPP4 cleavage of two amino acids, antagonist form
antagonism of CXCL10 (1-77) induced Ca++ mobilization (CXCR3 [1]; 5 min pre-treatment, then CXCL10 (1-77)): antagonized

CXCL10 (1-77): recombinant full length secreted human CXCL10, agonist form
directing the migration of CXCR3+ cells (CXCR3+ cells): capable
mediating receptor internalization (CXCR3 [2]): capable
triggering a Ca++ flux (CXCR3 [1]; CHO cells transfected with CXCR3): capable

isoleucine-proline-isoleucine [IPI]
inhibition of the enzymatic activity (plasma DPP activity) [3]: > 98%
